Measurements published in US20260242478A1 (published 2026).
Where no end group is shown, it is not given here.

B1: Phage-2563 (peptide)
peptide: NWKWCIPEWMCAAE
modifications: cysteine pairing not given here; also: fused to phage pIII, linker and fusion site not given here
B2: Phage-2571 (peptide)
peptide: IAKWCIPSWMCAGI
modifications: cysteine pairing not given here; also: fused to phage pIII, linker and fusion site not given here
B3: Phage-2543 (peptide)
peptide: SEHWCIPQWMCQSV
modifications: cysteine pairing not given here; also: fused to phage pIII, linker and fusion site not given here
B4: Phage-2547 (peptide)
peptide: EGKWCIPDWMCAAH
modifications: cysteine pairing not given here; also: fused to phage pIII, linker and fusion site not given here

Columns and labels:
[1] = biological target: T1, PSMA Fab (SEQ ID NOs: 19, 20); assay: phage ELISA; biotinylated PSMA Fab on neutravidin plate, anti-M13 HRP; no PSMA antigen
T1 construct: Biotinylated and captured on neutravidin coated plates in the phage ELISA; also called Anti-PSMA Fab; 006 PSMA Fab
Procedure: (§1) Clonal phage were harvested as crude supernatants and screened via standard ELISAs. […] Prior to the addition of clonal phage. wells were incubated with blocking buffer and PSMA antigen or blocking buffer alone. Without washing or aspirating, clonal phage supernatants were then added to the wells and incubated for a short time. Wells were then washed followed by detection of bound phage using a horse radish conjugated anti-M13 antibody.

[2] = biological target: T1, PSMA Fab (SEQ ID NOs: 19, 20); assay: phage ELISA; biotinylated PSMA Fab on neutravidin plate, anti-M13 HRP; competitor PSMA antigen pre-incubated
Procedure: as §1

PSMA Fab (006 PSMA Fab) [3] = biological target: T2, PSMA Fab (006 PSMA Fab); assay: clonal phage ELISA; biotinylated PSMA Fab on neutravidin plate, blocking buffer alone; anti-M13 HRP detection;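 note: crude clonal phage supernatants added without washing to wells pretreated with blocking buffer with or without PSMA antigen, short incubation, then washed before detecting bound phage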
T2 construct: also called Anti-PSMA Fab; anti-PSMA Fab
Procedure: as §1

PSMA Fab (006 PSMA Fab) [4] = biological target: T2, PSMA Fab (006 PSMA Fab); assay: clonal phage ELISA; biotinylated PSMA Fab on neutravidin plate, wells pre-incubated with PSMA antigen as competitor; anti-M13 HRP detection;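 note: crude clonal phage supernatants added to antigen-treated wells without a wash, incubated briefly, then bound phage read out via horse radish–conjugated anti-M13 antibody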
Procedure: as §1

PSMA Fab [5] = biological target: T3, PSMA Fab (biotinylated (site not stated)); assay: phage ELISA; PSMA Fab-coated wells pre-incubated with PSMA antigen as competitor, anti-M13-HRP detection
T3 construct: Biotinylated PSMA Fab captured on neutravidin plates in the phage ELISA; also called Anti-PSMA Fab; 006 PSMA Fab

PSMA Fab [6] = biological target: T3, PSMA Fab; assay: phage ELISA; biotinylated PSMA Fab on neutravidin plate, clonal phage supernatant, anti-M13-HRP detection;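 note: wells were preincubated with blocking buffer containing PSMA antigen or with blocking buffer only, then phage supernatant was added without washing for a brief incubation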
Procedure: as §1

Row | Binder | phage binding ELISA signal [1] | phage binding ELISA signal [2] | Phage binding ELISA signal, Anti-PSMA Fab (PSMA Fab (006 PSMA Fab) [3]) | Phage binding ELISA signal, Anti-PSMA Fab in presence of PSMA antigen (PSMA Fab (006 PSMA Fab) [4]) | Phage binding ELISA signal, Anti-PSMA Fab with PSMA antigen (PSMA Fab [5]) | Phage binding ELISA signal, Anti-PSMA Fab (PSMA Fab [6])
1 | WDKWCTPPWMCQVH [Phage-2559] | 1.12 | 0.0758 | – | – | – | –
2 | B1 | 1.11 | 0.0635 | – | – | – | –
3 | VPKWCTPAWMCTGL (Row prints V P K W - T - A - - - T - L) [Phage-2516] | – | – | 1.18 | 0.0721 | – | –
4 | VEKWCIPEWMCWTV [Phage-2565] | 1.11 | 0.0709 | – | – | – | –
5 | IVRWCTPEWMCVGF (Row prints - V R W - T - E - - - V - -) [Phage-2523] | – | – | 1.18 | 0.0674 | – | –
6 | HERSCIPAWMCWRQ (Row prints H E R S - I - A - - - W R Q) [Phage-2522] | – | – | 1.18 | 0.0706 | – | –
7 | B2 | 1.1 | 0.139 | – | – | – | –
8 | FENWCTPKWMCIGV [Phage-2548] | – | – | – | – | 0.102 | 1.14
9 | ESHWCIPAWMCEQF [Phage-2546] | – | – | – | – | 0.0589 | 1.14
10 | YDVLCKPDWMCNWN [Phage-2568] | 1.11 | 0.0861 | – | – | – | –
11 | SEIWCIPAWMCQST [Phage-2564] | 1.11 | 0.0851 | – | – | – | –
12 | LYNWCTPAWMCYGY [Phage-2545] | – | – | – | – | 0.284 | 1.15
13 | LGKMCIPLWMCDGL (Row prints L G K M - I - L - - - D - L) [Phage-2512] | – | – | 1.19 | 0.0573 | – | –
14 | TQKLCIPEWMCEAM [Phage-2555] | – | – | – | – | 0.0698 | 1.12
15 | VITWCTPPWMCSGW (Row prints V I T W - T - P - - - S - W) [Phage-2525] | – | – | 1.17 | 0.0911 | – | –
16 | GEKACIPAWMCSEN [Phage-2553] | – | – | – | – | 0.0736 | 1.13
17 | B3 | – | – | – | – | 0.114 | 1.15
18 | EPKWCTPPWMCQSV [Phage-2551] | – | – | – | – | 0.0734 | 1.14
19 | EPKWCTPPWMCENF [Phage-2567] | 1.11 | 0.0576 | – | – | – | –
20 | EIKWCTPAWMCAIN (Row prints E I K W - T - A - - - - I N) [Phage-2514] | – | – | 1.18 | 0.0972 | – | –
21 | WEKWCTPSWMCSAG (Row prints W E K W - T - S - - - S A G) [Phage-2526] | – | – | 1.17 | 0.0743 | – | –
22 | WENWCTPTWMCWPN [Phage-2558] | 1.12 | 0.0834 | – | – | – | –
23 | AIHWCTPPWMCEPQ [Phage-2569] | 1.1 | 0.0777 | – | – | – | –

Row | Binder | phage binding ELISA signal [1] | phage binding ELISA signal [2] | Phage binding ELISA signal, Anti-PSMA Fab (PSMA Fab (006 PSMA Fab) [3]) | Phage binding ELISA signal, Anti-PSMA Fab in presence of PSMA antigen (PSMA Fab (006 PSMA Fab) [4]) | Phage binding ELISA signal, Anti-PSMA Fab with PSMA antigen (PSMA Fab [5]) | Phage binding ELISA signal, Anti-PSMA Fab (PSMA Fab [6])
24 | DNKWCIPEWMCFAS (Row prints D N K W - I - E - - - F A S) [Phage-2521] | – | – | 1.18 | 0.0796 | – | –
25 | IDPRCIPEWMCIGY (Row prints - D P R - I - E - - - I - Y) [Phage-2518] | – | – | 1.18 | 0.0633 | – | –
26 | LQTWCIPPWMCEGG [Phage-2556] | – | – | – | – | 0.0675 | 1.12
27 | VDNWCTPMWMCAWI (Row prints V D N W - T - M - - - - W I) [Phage-2517] | – | – | 1.18 | 0.109 | – | –
28 | YAPWCIPLWMCLDR [Phage-2561] | 1.11 | 0.161 | – | – | – | –
29 | LTQWCIPQWMCEGS (Row prints L T Q W - I - Q - - - E - S) [Phage-2515] | – | – | 1.18 | 0.0537 | – | –
30 | VDPWCKPAWMCLGM [Phage-2566] | 1.11 | 0.0597 | – | – | – | –
31 | EGPWCIPEWMCQNS [Phage-2570] | 1.1 | 0.0766 | – | – | – | –
32 | AVKWCTPAWMCSGF (Row prints A V K W - T - A - - - S - -) [Phage-2524] | – | – | 1.18 | 0.0682 | – | –
33 | PLKWCIPQWMCTEA [Phage-2544] | – | – | – | – | 0.0825 | 1.15
34 | VLKWCTPAWMCTGF [Phage-2557] | – | – | – | – | 0.0805 | 1.12
35 | VQKWCIPPWMCTHI [Phage-2549] | – | – | – | – | 0.0958 | 1.14
36 | B4 | – | – | – | – | 0.0598 | 1.14
37 | VPIWCTPEWMCSGF (Row prints V P I W - T - E - - - S - -) [Phage-2519] | – | – | 1.18 | 0.0879 | – | –
38 | AEYWCIPRWMCSQH [Phage-2552] | – | – | – | – | 0.0882 | 1.14
39 | PIPLCIPLWMCEER (Row prints P I P - - I - L - - - E E R) [Phage-2520] | – | – | 1.18 | 0.0838 | – | –
40 | MFKWCTPQWMCETM [Phage-2554] | – | – | – | – | 0.124 | 1.13
41 | FHEWCIPSWMCFKE [Phage-2550] | – | – | – | – | 0.0984 | 1.14
42 | QYNWCVPAWMCEIS [Phage-2572] | 1.1 | 0.0848 | – | – | – | –
43 | GVMWCIPQWMCVTA [Phage-2560] | 1.12 | 0.104 | – | – | – | –
44 | SLELCRPEWMCVGF (Row prints S L E - - R - E - - - V - -) [Phage-2513] | – | – | 1.19 | 0.0955 | – | –
45 | IAKLCTPAWMCERH [Phage-2562] | 1.11 | 0.0803 | – | – | – | –
